{"source": "patent US20120322862", "target": "4-1BB (TNFRSF9) extracellular domain (Homo sapiens) (UniProt Q07011)", "test": "competition", "settings": "all dT replaced by TrpdU (5-(N-tryptaminocarboxyamide)-2'-deoxyuridine); all C 5-methyl-dC; inhibition of 4-1BB ligand capture by receptor on Protein A beads (co-IP); PBS/0.02% Tween-20, 37 C"}
{"sequence": "CCTGCACCCAGTGTCCCNGANGGGGNNNNNNAGNNGNANNNNGNAANGGNGGANGNNGANGGAGAGGAGGANGG [1684-40]", "values": [{"measurement": "IC50", "value": 0.81, "unit": "nM"}]}
